# Values of other authors in article PMC2478715.
# Tested on: HMGB1 (purified from mammalian source) (rat (liver nuclei), human (HeLa) or monkey (CV1); preparation per gel not specified)
# Assay: cited value; method not stated here
# Settings: 50 mM NaCl, 25 mM Tris-HCl pH 7.5, 1 mM DTT, 1 mM EDTA, 0.1% Triton X-100, 100 ug/mL BSA, 2% glycerol, 25 uL, 20 min at 37 C; 4% PAGE in 0.5x TBE at room …
substance,measurement,value
"hcDNA (hemicatenated DNA loop, 120 bp fragment)",Kd,< 0.15 pM
